# According to paper PMC11011275, “Impact of Protein Nanoparticle Shape on the Immunogenicity of Antimicrobial Glycoconjugate Vaccines” (International Journal of Molecular Sciences, 2024):
# B1: Pseudomonas aeruginosa Hemolysin-coregulated protein 1 double mutant G90C + R157C (Hcp1cc) (natural protein)
# chain: MAVDMFIKIGDVKGESKDKTHAEEIDVLAWSWGMSQSGSMHMGGGGGAGKVNVQDLSFTKYIDKSTPNLMMACSSGKHYPQAKLTIRKACGENQVEYLIITLKEVLVSSVSTGGSGGEDRLTENVTLNFAQVQVDYQPQKADGAKDGGPVKYGWNICQNVQA
# notes: Hemolysin-coregulated protein 1 (Hcp1) of Pseudomonas aeruginosa with G90C and R157C; printed monomer mass 18.3 kD; 6 copies make one ring; without reducing agent the rings stack into disulfide-bonded nanotubes (up to 8-9 rings as purified, up to 14-18 rings after the oligomerization process); also called Hcp1cc nanoring; Hcp1cc nanotube; source: tangential flow filtration
# Target: the molecule itself
# Test: negative-stain transmission electron microscopy; Hcp1cc nanotubes incubated with the reducing agent DTT (nanorings)
protein,measurement,value
B1,stoichiometry N,6 monomers
